Assay results reported in paper PMC10855554.
Blank lines part the entries; values can stand above or below the substance they belong to.

What was measured:
TbTim10-Myc (T. brucei) = test: co-IP; anti-Myc agarose beads, 1% digitonin-solubilised mitochondrial extract of double-tagged T. brucei cells (day 2 of induction), 50 mM Tris pH 7.2, 50 mM NaCl, 10% glycerol, 12 h at 4 °C; immunoblot, bound fraction as percent of input
TbTim9-HA (T. brucei) = test: co-IP; anti-HA agarose beads, 1% digitonin-solubilised mitochondrial extract of double-tagged T. brucei cells (day 2 of induction), 50 mM Tris pH 7.2, 50 mM NaCl, 10% glycerol, 12 h at 4 °C; immunoblot, bound fraction as percent of input
TbTim10-HA (T. brucei) = test: as above
TbTim13-HA (T. brucei) = test: as above
TbTim8/13-HA (T. brucei) = test: as above
TbTim12-HA (T. brucei) = test: as above

Substance: TbTim8/13-HA (natural protein)
percent of input co-precipitated (% of the input) (TbTim10-Myc (T. brucei)): 45

Substance: TbTim10-Myc (natural protein)
percent of input co-precipitated (% of the input) (TbTim9-HA (T. brucei)): 45
percent of input co-precipitated (TbTim10-HA (T. brucei)): < 10%
percent of input co-precipitated (TbTim13-HA (T. brucei)): < 10%
percent of input co-precipitated (% of the input) (TbTim8/13-HA (T. brucei)): 45
percent of input co-precipitated (TbTim12-HA (T. brucei)): < 10%

Substance: TbTim12-HA (natural protein)
percent of input co-precipitated (% of the input) (TbTim10-Myc (T. brucei)): 30

Second part, the substance after the results:

percent of input co-precipitated (% of the input) (TbTim10-Myc (T. brucei)): 35
Substance: TbTim9-HA (natural protein)

percent of input co-precipitated (% of the input) (TbTim10-Myc (T. brucei)): 25
Substance: TbTim10-HA (natural protein)
